According to article doi:10.1101/473132:

Molecular target: H3K9me3 mononucleosome with one disulfide bridge between H3 I62C and H4 A33C (oxidized) (X. laevis)
Assay: fluorescence polarisation

Sequence of Swi6 (S. pombe HP1 protein) (P40381 whole entry): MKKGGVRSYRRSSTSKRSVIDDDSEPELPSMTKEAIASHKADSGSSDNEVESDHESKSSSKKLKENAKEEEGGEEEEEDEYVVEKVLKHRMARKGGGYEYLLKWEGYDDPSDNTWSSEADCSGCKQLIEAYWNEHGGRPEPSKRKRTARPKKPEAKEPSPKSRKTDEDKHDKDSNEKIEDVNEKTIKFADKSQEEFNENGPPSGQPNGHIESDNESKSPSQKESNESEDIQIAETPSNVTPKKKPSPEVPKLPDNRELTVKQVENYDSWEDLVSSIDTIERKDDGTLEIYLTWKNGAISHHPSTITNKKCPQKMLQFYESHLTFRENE

Swi6 (S. pombe HP1 protein) (from UniProt P40381 1-328) (natural protein)
Kd: 300 nM
